{"source": "paper PMC5897841", "about": "“Development of a multipurpose scaffold for the display of peptide loops” (Protein Engineering, Design and Selection, 2017)", "binders": {"B1": {"name": "Aurora A_(D274N) kinase domain (domain or fragment)", "chain": "ESKKRQWALEDFEIGRPLGKGKFGNVYLAREKQSKFILALKVLFKAQLEKAGVEHQLRREVEIQSHLRHPNILRLYGYFHDATRVYLILEYAPLGTVYRELQKLSKFDEQRTATYITELANALSYCHSKRVIHRDIKPENLLLGSAGELKIANFGWSVHAPSSRRTTLCGTLDYLPPEMIEGRMHDEKVDLWSLGVLCYEFLVGKPPFEANTYQETYKRISRVEFTFPDFVTEGARDLISRLLKHNPSQRPMLREVLEHPWITANSSKPSNCQNKESASKQS"}}, "key": {"[1]": {"target": "cRAD-TPX2_((7–43)) display protein (Pyrococcus furiosus | human) (UniProt O74036)", "assay": "SPR; Biacore T100, CM5, peptides or cRAD display proteins immobilised through their cysteine (240-400 RU), kinase as analyte 2.5 nM-2.5 μM, 25°C, 10 mM HEPES pH 7.4, 500 mM NaCl, 0.05% P20; 1:1 steady-state affinity model; CK2α data analysed at 200 s post-injection"}, "[2]": {"target": "Alexa Fluor 488-labeled cRAD-TPX2_((7–43)) display protein (Pyrococcus furiosus | human) (UniProt O74036)", "assay": "fluorescence polarisation; fluorescence anisotropy, direct titration of kinase (CK2α 2 nM-2 μM; Aurora A D274N 2 nM-1.5 μM) into labelled peptide or display protein; 10 mM HEPES pH 7.4, 500 mM NaCl, 1 mM DTT, 0.05% P20; room temperature; 1:1 model"}}}
{"binder": "B1", "values": [{"measurement": "Kd", "setting": "[1]", "result": 168, "unit": "nM"}, {"measurement": "Kd", "setting": "[2]", "result": 98, "unit": "nM"}]}
